US20210032334A1 (Dana-Farber, published 2021)

Target: T1, full-length murine BTNL2 expressed on 300.19 cells (mouse)
T1 construct: No signal peptide limits are stated; also called mBTNL2; mouse BTNL2
T1 chain: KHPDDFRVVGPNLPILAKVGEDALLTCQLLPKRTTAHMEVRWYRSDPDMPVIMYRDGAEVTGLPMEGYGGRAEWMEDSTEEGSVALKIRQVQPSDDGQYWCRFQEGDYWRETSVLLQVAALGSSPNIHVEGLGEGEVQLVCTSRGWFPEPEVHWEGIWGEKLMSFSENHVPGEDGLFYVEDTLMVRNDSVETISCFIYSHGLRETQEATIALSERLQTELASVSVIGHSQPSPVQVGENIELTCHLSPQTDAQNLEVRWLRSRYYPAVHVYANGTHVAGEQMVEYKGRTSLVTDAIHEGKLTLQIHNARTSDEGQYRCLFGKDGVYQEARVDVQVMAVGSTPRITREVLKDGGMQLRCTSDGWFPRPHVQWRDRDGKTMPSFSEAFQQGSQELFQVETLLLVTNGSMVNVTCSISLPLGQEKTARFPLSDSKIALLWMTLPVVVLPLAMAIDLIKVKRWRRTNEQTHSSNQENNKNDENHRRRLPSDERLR
Experiment: flow cytometry, cell binding on 300.19 cells expressing full-length mBTNL2
Experimental: All rat anti-mouse BTNL2 mAbs were tested for reactivity with specific Ig domains of BTNL2 by flow cytometry on 300.19 cells transfected with full length murine BTNL2 cDNA, murine BTLN2 (first IgV domain)-murine PD-L1 (IgC, transmembrane and cytoplasmic domains, or BTNL2 (first IgV domain and 2nd Ig domain and short exon 4)-human TIM-1 mucin-transmembrane-cytoplasmic domains and for lack of reactivity with untransfected 300.19 cells. In particular, mouse pre-B cell line 300.19 cells were transfected by electroporation with full length murine BTNL2 cDNA, murine BTLN2 (first IgV domain)-murine PD-L1 (IgC, transmembrane and cytoplasmic domains, or BTNL2 (first IgV domain and 2nd Ig domain and short exon 4)-human TIM-1 mucin-transmembrane-cytoplasmic domains in the pEFGF-Puro expression vector. Cells were selected in media containing puromycin, sorted, and subcloned. […] Cells were stained with target antibodies and isotype controls using standard flow cytometry procedures, and analyzed on a FACSCanto (BD Biosciences) and FlowJo 9.2 software (TreeStar). […]
A number of anti-BTNL2 monoclonal antibodies were generated and analyzed (see FIGS. 3C-3D and Table 3 below for details), including extensive analysis of two exemplary anti-BTNL2 monoclonal antibodies that were prepared in rat against mouse BTNL2 (mBTNL2). […]

B1: anti-mouse BTNL2 monoclonal antibody clone 311.8A7 (antibody, rat IgG1, V domains shown)
VH: EVRLVESGGGLVQPGRSLKLSCAASGFTFRIFYMAWVRQSPTKGLEWVAYISAGSDFTYYRDSVKGRFTISRDDAKSTLYLEMDSLRSEDTATYHCTTGYRYNFAYWGQGTLVTVSS
VL: DIQLTQSPSSLPASLGERVTISCRSSQDINSHLNWYQQKPDGTIKALIYQTSNLQSGVPSRFSGSGSGADYSLTISSLEPEDFAIFHCQQDADFPYTFGAGTKLELK
notes: Rat IgG1 (kappa) from a hybridoma, 311 series
  EC50: 0.054 µg/mL
